Measured values as given in patent US20110311550A1 (Scripps Research, published 2011).

Legend:
Experiment in all cases: ELISA, lectin-captured E1E2 lysate, Ab 1 ug/ml;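 also: E1E2 captured on Galanthus nivalis lectin-coated plates, bound test antibody read out by an HRP-linked secondary antibody and TMB colour development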
[1] = target: E1E2 complex (H77) with E1 mutation S198A (HCV genotype 1a, isolate H77, UniProt P27958 192-383; P27958 384-746)
[2] = target: E1E2 complex (H77) with E1 mutation M324A (HCV genotype 1a, isolate H77, UniProt P27958 192-383; P27958 384-746)
[3] = target: E1E2 complex (H77) with E1 mutation T329A (HCV genotype 1a, isolate H77, UniProt P27958 192-383; P27958 384-746)
[4] = target: E1E2 complex (H77) with E1 mutation V246A (HCV genotype 1a, isolate H77, UniProt P27958 192-383; P27958 384-746)
[5] = target: E1E2 complex (H77) with E1 mutation H298A (HCV genotype 1a, isolate H77, UniProt P27958 192-383; P27958 384-746)
[6] = target: E1E2 complex (H77) with E1 mutation D346A (HCV genotype 1a, isolate H77, UniProt P27958 192-383; P27958 384-746)
[7] = target: E1E2 complex (H77) with E1 mutation N209A (HCV genotype 1a, isolate H77, UniProt P27958 192-383; P27958 384-746)
[8] = target: E1E2 complex (H77) with E1 mutation R339A (HCV genotype 1a, isolate H77, UniProt P27958 192-383; P27958 384-746)
[9] = target: E1E2 complex (H77) with E1 mutation Y309A (HCV genotype 1a, isolate H77, UniProt P27958 192-383; P27958 384-746)
[10] = target: E1E2 complex (H77) with E1 mutation N305A (HCV genotype 1a, isolate H77, UniProt P27958 192-383; P27958 384-746)
[11] = target: E1E2 complex (H77) with E1 mutation P228A (HCV genotype 1a, isolate H77, UniProt P27958 192-383; P27958 384-746)
[12] = target: E1E2 complex (H77) with E1 mutation P328A (HCV genotype 1a, isolate H77, UniProt P27958 192-383; P27958 384-746)
[13] = target: E1E2 complex (H77) with E1 mutation G315A (HCV genotype 1a, isolate H77, UniProt P27958 192-383; P27958 384-746)
[14] = target: E1E2 complex (H77) with E1 mutation W239A (HCV genotype 1a, isolate H77, UniProt P27958 192-383; P27958 384-746)
[15] = target: E1E2 complex (H77) with E1 mutation R317A (HCV genotype 1a, isolate H77, UniProt P27958 192-383; P27958 384-746)
[16] = target: E1E2 complex (H77) with E1 mutation G350A (HCV genotype 1a, isolate H77, UniProt P27958 192-383; P27958 384-746)
[17] = target: E1E2 complex (H77) with E1 mutation A269G (HCV genotype 1a, isolate H77, UniProt P27958 192-383; P27958 384-746)
[18] = target: E1E2 complex (H77) with E1 mutation L221A (HCV genotype 1a, isolate H77, UniProt P27958 192-383; P27958 384-746)
[19] = target: E1E2 complex (H77) with E1 mutation N196A/N325A (HCV genotype 1a, isolate H77, UniProt P27958 192-383; P27958 384-746)
[20] = target: E1E2 complex (H77) with E1 mutation Y276A (HCV genotype 1a, isolate H77, UniProt P27958 192-383; P27958 384-746)
[21] = target: E1E2 complex (H77) with E1 mutation V266A (HCV genotype 1a, isolate H77, UniProt P27958 192-383; P27958 384-746)
[22] = target: E1E2 complex (H77) with E1 mutation G225A (HCV genotype 1a, isolate H77, UniProt P27958 192-383; P27958 384-746)

B1: N4 IgG (antibody, V domains shown)
VH: VQLLEQSGPEVKKPGDSLRISCKMSGDSLVTTWIGWVRQKPGQGLEWMGIINPGDSSTNIYPGDSATRYGPSFQGQVTISIDKSTSTAYLQWNNVKASDTGIYYCARHVPVPISGTFLWREREMHDFGYFDDWGQGTLVIVSS
VL: ELTLTQSPGTLSLSPGERATLSCRASQSVSNNYLAWYQQKPGQAPRLLIYGASSRATGIPDRFSGSGSGTGFTLIISRLEPEDFAVYYCQQYGSSSITFGQGTRLEIKR
notes: also called IgG N4
B1 was tested, and the “Binding relative to wt (%)” value [1] was 78%, the “Binding relative to wt (%)” value [2] was 89% and the “Binding relative to wt (%)” value [3] was 114%. For the same binder, the “Binding relative to wt (%)” value [4] was 97%, the “Binding relative to wt (%)” value [5] was 62% and the “Binding relative to wt (%)” value [6] was 83%. The “Binding relative to wt (%)” value [7] was 117%, the “Binding relative to wt (%)” value [8] was 119% and the “Binding relative to wt (%)” value [9] was 32%. For the same binder, the “Binding relative to wt (%)” value [10] was 42%, the “Binding relative to wt (%)” value [11] was 38% and the “Binding relative to wt (%)” value [12] was 127%. The “Binding relative to wt (%)” value [13] was 87%, the “Binding relative to wt (%)” value [14] was 67% and the “Binding relative to wt (%)” value [15] was 98%. For the same binder, the “Binding relative to wt (%)” value [16] was 68%, the “Binding relative to wt (%)” value [17] was 55% and the “Binding relative to wt (%)” value [18] was 100%. For the same binder, the “Binding relative to wt (%)” value [19] was 54%, the “Binding relative to wt (%)” value [20] was 103% and the “Binding relative to wt (%)” value [21] was 92%. The “Binding relative to wt (%)” value [22] was 79%.
